Results from patent publication US20240117326A1 (COMMONWEALTH SCIENTIFIC AND INDUSTRIAL RESEARCH ORGANISATION, published 2024).

B1: MPP-processed MTP-FAγ51::NifU::TwinStrep fusion polypeptide encoded by SN166 (scar9::GG::NifU::TS) (other)
chain: not shown
notes: N-terminal analysis and the tryptic peptide ISTQVVR confirmed cleavage at the intended site; Purified from N. benthamiana leaves; also called scar9-NifU::TS; scar9-NifU-TwinStrep

What was measured:
[1] = target: T1, MPP-processed MTP-FAγ51::NifS::HA fusion polypeptide encoded by SN31 (scar9::GG::NifS::HA) (Klebsiella oxytoca, UniProt P05344 1-397); experiment: co-purification on StreptactinXT column through NifU::TS from N. benthamiana leaf extract (SN31 + SN166), anaerobic, non-denaturing; anti-HA Western blot
T1 construct: also called scar9-NifS::HA; processed NifS
T1 sequence: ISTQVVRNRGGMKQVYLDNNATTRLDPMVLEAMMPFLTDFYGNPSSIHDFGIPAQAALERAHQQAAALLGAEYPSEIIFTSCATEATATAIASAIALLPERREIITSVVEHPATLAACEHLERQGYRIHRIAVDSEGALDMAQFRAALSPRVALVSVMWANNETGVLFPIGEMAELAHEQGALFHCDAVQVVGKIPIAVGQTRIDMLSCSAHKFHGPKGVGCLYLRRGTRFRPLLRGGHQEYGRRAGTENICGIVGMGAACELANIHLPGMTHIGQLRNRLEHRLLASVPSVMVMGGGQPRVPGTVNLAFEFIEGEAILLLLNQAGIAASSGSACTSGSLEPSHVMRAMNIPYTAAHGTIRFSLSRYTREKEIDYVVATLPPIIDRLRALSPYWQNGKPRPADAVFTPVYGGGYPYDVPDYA

[2] = target: B1; experiment: co-purification on StreptactinXT column through NifU::TS from N. benthamiana leaf extract (SN31 + SN166), anaerobic, anti-HA Western blot of the eluate
[3] = target: T2, MPP-processed MTP-FAγ51::HA::AnfD fusion polypeptide (gene of SN161; in SL26, SL34, SL43, SL93) (Azotobacter vinelandii, UniProt P16266 1-518); experiment: co-purification on Strep-tactin column through TwinStrep::AnfK (SL34), aerobic; anti-HA Western blot
T2 construct: also called HA::AnfD processed; AnfD polypeptide

[4] = target: T3, MPP-processed MTP-FAγ51::NifU::HA fusion polypeptide encoded by SN32 (scar9::GG::NifU::HA) (Klebsiella oxytoca, UniProt P05343 1-274); experiment: co-purification on StrepTactinXT column through NifS::TS from N. benthamiana leaf extract (SN231 + SN32); anti-HA Western blot
T3 construct: also called scar9::NifU::HA; processed NifU
T3 sequence: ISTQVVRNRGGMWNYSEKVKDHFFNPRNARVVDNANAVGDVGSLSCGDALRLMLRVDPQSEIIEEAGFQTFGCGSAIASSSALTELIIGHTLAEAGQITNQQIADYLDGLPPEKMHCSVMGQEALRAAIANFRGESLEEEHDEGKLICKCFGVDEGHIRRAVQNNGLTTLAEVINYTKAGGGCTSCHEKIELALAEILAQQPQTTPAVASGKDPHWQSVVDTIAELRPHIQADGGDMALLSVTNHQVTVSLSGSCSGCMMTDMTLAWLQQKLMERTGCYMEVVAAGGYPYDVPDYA

[5] = target: T4, MPP-processed MTP-FAγ51::AnfD::Twin Strep fusion polypeptide (gene of SN177, expressed from multi-gene vector … (Azotobacter vinelandii, UniProt P16266 1-518)); experiment: discussion of the AnfD::TwinStrep purification, aerobic
T4 construct: The eluted AnfD migrated at the size of the processed form; also called AnfD polypeptide (SL30)
T4 sequence (P16266 other isoform, or with tags, fused parts or gaps): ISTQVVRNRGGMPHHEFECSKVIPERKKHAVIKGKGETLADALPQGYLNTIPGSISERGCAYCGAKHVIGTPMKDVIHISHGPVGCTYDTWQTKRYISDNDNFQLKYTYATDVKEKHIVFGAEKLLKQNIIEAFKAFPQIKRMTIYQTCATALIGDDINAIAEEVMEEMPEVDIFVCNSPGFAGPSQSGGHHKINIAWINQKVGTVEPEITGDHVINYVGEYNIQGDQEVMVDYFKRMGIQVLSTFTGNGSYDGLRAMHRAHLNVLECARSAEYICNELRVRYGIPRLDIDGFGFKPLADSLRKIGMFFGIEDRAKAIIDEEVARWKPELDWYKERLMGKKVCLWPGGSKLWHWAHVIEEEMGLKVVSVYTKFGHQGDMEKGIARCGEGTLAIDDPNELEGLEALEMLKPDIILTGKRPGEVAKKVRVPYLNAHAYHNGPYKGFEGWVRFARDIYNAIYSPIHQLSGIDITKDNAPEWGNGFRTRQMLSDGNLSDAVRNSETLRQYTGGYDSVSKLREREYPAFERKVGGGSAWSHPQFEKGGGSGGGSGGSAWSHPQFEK

## B1
[1]
  binding result: binds

B2: unprocessed MTP-FAγ51::NifS::HA fusion polypeptide encoded by SN31 (enzyme)
chain: MMAMAVFRREGRRLLPSIAARPIAAIRSPLSSDQEEGLLGVRSISTQVVRNRGGMKQVYLDNNATTRLDPMVLEAMMPFLTDFYGNPSSIHDFGIPAQAALERAHQQAAALLGAEYPSEIIFTSCATEATATAIASAIALLPERREIITSVVEHPATLAACEHLERQGYRIHRIAVDSEGALDMAQFRAALSPRVALVSVMWANNETGVLFPIGEMAELAHEQGALFHCDAVQVVGKIPIAVGQTRIDMLSCSAHKFHGPKGVGCLYLRRGTRFRPLLRGGHQEYGRRAGTENICGIVGMGAACELANIHLPGMTHIGQLRNRLEHRLLASVPSVMVMGGGQPRVPGTVNLAFEFIEGEAILLLLNQAGIAASSGSACTSGSLEPSHVMRAMNIPYTAAHGTIRFSLSRYTREKEIDYVVATLPPIIDRLRALSPYWQNGKPRPADAVFTPVYGGGYPYDVPDYA
notes: Full-length translation product, not cleaved by MPP; also called unprocessed form of the NifS fusion polypeptide
[2]
  binding result: no binding

B3: MPP-processed MTP-CoxIV::Twin Strep::AnfK fusion polypeptide (gene of SN195; in SL34, SL37, SL43) (enzyme)
chain: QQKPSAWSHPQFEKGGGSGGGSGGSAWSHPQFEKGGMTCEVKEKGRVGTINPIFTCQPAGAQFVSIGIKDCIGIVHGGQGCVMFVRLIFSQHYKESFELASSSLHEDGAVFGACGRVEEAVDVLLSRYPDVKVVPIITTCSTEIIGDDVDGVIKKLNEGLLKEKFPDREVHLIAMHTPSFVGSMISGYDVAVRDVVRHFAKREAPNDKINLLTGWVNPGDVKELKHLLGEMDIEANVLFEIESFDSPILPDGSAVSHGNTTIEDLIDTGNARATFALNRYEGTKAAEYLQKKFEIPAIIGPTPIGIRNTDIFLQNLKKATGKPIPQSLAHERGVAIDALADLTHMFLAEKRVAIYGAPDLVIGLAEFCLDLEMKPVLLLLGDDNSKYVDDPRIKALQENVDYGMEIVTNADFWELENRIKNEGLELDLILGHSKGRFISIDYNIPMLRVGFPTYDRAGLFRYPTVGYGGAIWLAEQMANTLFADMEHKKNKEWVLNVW
notes: also called MTP-CoxIV::TwinStrep::AvAnfK
[3]
  binding result: binds

B4: MPP-processed MTP-FAγ51::NifS::TwinStrep fusion polypeptide encoded by SN231 (scar9::NifS::TS) (enzyme)
chain: not shown
notes: the text names scar9::NifS::TS in the eluate; also called MTP-FAγ51::NifS::TS
[4]
  binding result: binds

B5: MPP-processed MTP-FAγ51::HA::AnfK fusion polypeptide (gene of SN129; in SL26, SL30, SL93) (enzyme)
chain: ISTQVVRNRGGYPYDVPDYAGGMTCEVKEKGRVGTINPIFTCQPAGAQFVSIGIKDCIGIVHGGQGCVMFVRLIFSQHYKESFELASSSLHEDGAVFGACGRVEEAVDVLLSRYPDVKVVPIITTCSTEIIGDDVDGVIKKLNEGLLKEKFPDREVHLIAMHTPSFVGSMISGYDVAVRDVVRHFAKREAPNDKINLLTGWVNPGDVKELKHLLGEMDIEANVLFEIESFDSPILPDGSAVSHGNTTIEDLIDTGNARATFALNRYEGTKAAEYLQKKFEIPAIIGPTPIGIRNTDIFLQNLKKATGKPIPQSLAHERGVAIDALADLTHMFLAEKRVAIYGAPDLVIGLAEFCLDLEMKPVLLLLGDDNSKYVDDPRIKALQENVDYGMEIVTNADFWELENRIKNEGLELDLILGHSKGRFISIDYNIPMLRVGFPTYDRAGLFRYPTVGYGGAIWLAEQMANTLFADMEHKKNKEWVLNVW
notes: also called HA::AnfK processed
[5]
  binding result: binds
